Data from US20200164038A1, “MODIFIED NUCLEOSIDE, NUCLEOTIDE, AND NUCLEIC ACID COMPOSITIONS” (ModernaTX, Inc., priority 2011, published 2020).
Like-named read-outs stand apart in the source and are kept apart here.

Legend:
[1] = system: Neutrophil and reticulocyte count; assay: Non-human primate hematology: neutrophil and reticulocyte count, hemoglobin, hematocrit, red blood cells; assay type: in vivo, cynomolgus monkey; settings: for Female NHP Neutrophils: Table 39
Experimental: LNP formulations, shown in Table 31 (above), were administered to non-human primates (NHP) (cynomolgus monkey) (n=2) as intravenous injection (IV). The NHP were administered a single modified mRNA IV dose of 0.5 mg/kg, 0.05 mg/kg or 0.005 mg/kg of G-CSF or EPO in a dose volume of 0.5 mL/kg. The NHPs were bled before dosing with the modified mRNA LNP formulations to determine protein expression in the serum and a baseline complete blood count. After administration with the G-CSF modified mRNA formulation the NHP were bled at 8, 24, 48 and 72 hours to determined protein expression. After administration with the EPO modified mRNA formulation the NHP were bled at 8, 24, 48, 72 hours and 7 days to determined protein expression.
Samples collected from the NHPs after they were administered with G-CSF or EPO modified mRNA formulations were analyzed by ELISA to determine protein expression. Neutrophil and reticulocyte count was also determined pre-dose, 24 hours, 3 days, 7 days, 14 days and 18 days after administration of the modified G-CSF or EPO formulation.

[2] = Human G-CSF modified RNA lipoplex I.M., S.C., I.V., serum human G-CSF ELISA 6 hours; assay type: in vivo, C57/BL6 mice; settings: lipoplexed 30% RNAIMAX
Experimental: 6 hours after administration of a formulation, serum was collected from each mouse to measure the amount of human G-CSF protein in the mouse serum by human G-CSF ELISA and the results are shown in Table 54.

IFN-alpha = assay: Cytokine study PBMC, IFN-alpha production ELISA; assay type: cell-based; settings: human PBMC, Lipofectamine 2000
Experimental: The plates were then incubated at 37 C.
Each condition was done in duplicate
Shown in Tables 69 and 70 are the average from 2 separate PBMC donors of the G-CSF and IFN-alpha production over time as measured by specific ELISA.

[3] = for Serum Concentration 8-12 hours after administration: G-CSF; for G-CSF Protein Expression, Conc: mice IV, serum 8 hrs

Experimental for HEK293 cells: Human embryonic kidney epithelial (HEK293) cells were seeded on 96-well plates at a density of 30,000 cells per well in 100 ul cell culture medium. 250 ng of modified G-CSF mRNA (SEQ ID NO: 6; polyA tail of approximately 160 nucleotides not shown in sequence; 5′cap, Cap1) formulated with RNAiMAX™ (Invitrogen, Carlsbad, Calif.) was added to a well. The G-CSF was completely modified with 5mC and pseudoU (100% modification), not modified with 5mC and pseudoU (0% modification) or was partially modified with 5mC and pseudoU so the mRNA would contain 75% modification, 50% modification or 25% modification. Control samples (AH 5/2, mCherry (SEQ ID NO: 7; polyA tail of approximately 160 nucleotides not shown in sequence; 5′cap, Cap1; fully modified 5mC and pseudoU) and untreated) were also analyzed. […] The supernatants were harvested after 16 hours and the secreted G-CSF protein was analyzed by ELISA.

B1: G-CSF: human G-CSF mRNA, SEQ ID NO: 6, polyA about 160 nt, Cap1, fully modified with 5-methylcytosine and pseudouridine (nucleic acid, listed as Homo sapiens)
chain: GGGAAAUAAGAGAGAAAAGAAGAGUAAGAAGAAAUAUAAGAGCCACCAUGGCCGGUCCCGCGACCCAAAGCCCCAUGAAACUUAUGGCCCUGCAGUUGCUGCUUUGGCACUCGGCCCUCUGGACAGUCCAAGAAGCGACUCCUCUCGGACCUGCCUCAUCGUUGCCGCAGUCAUUCCUUUUGAAGUGUCUGGAGCAGGUGCGAAAGAUUCAGGGCGAUGGAGCCGCACUCCAAGAGAAGCUCUGCGCGACAUACAAACUUUGCCAUCCCGAGGAGCUCGUACUGCUCGGGCACAGCUUGGGGAUUCCCUGGGCUCCUCUCUCGUCCUGUCCGUCGCAGGCUUUGCAGUUGGCAGGGUGCCUUUCCCAGCUCCACUCCGGUUUGUUCUUGUAUCAGGGACUGCUGCAAGCCCUUGAGGGAAUCUCGCCAGAAUUGGGCCCGACGCUGGACACGUUGCAGCUCGACGUGGCGGAUUUCGCAACAACCAUCUGGCAGCAGAUGGAGGAACUGGGGAUGGCACCCGCGCUGCAGCCCACGCAGGGGGCAAUGCCGGCCUUUGCGUCCGCGUUUCAGCGCAGGGCGGGUGGAGUCCUCGUAGCGAGCCACCUUCAAUCAUUUUUGGAAGUCUCGUACCGGGUGCUGAGACAUCUUGCGCAGCCGUGAAGCGCUGCCUUCUGCGGGGCUUGCCUUCUGGCCAUGCCCUUCUUCUCUCCCUUGCACCUGUACCUCUUGGUCUUUGAAUAAAGCCUGAGUAGGAAG
modifications: Cap1; polyA; 5-methylcytosine, pseudouridine
- Hematocrit (HCT) ([1]; Female NHP, 0.5 mg/kg, 7 days): 0.38 L/L
- Hematocrit (HCT) ([1]; Female NHP, 0.5 mg/kg, Pre-dose): 0.43 L/L
- Hematocrit (HCT) ([1]; Male NHP, 0.005 mg/kg, 14/18 days): 0.41 L/L
- Hematocrit (HCT) ([1]; Male NHP, 0.005 mg/kg, 24 hours): 0.4 L/L
- Hematocrit (HCT) ([1]; Male NHP, 0.005 mg/kg, 3 days): 0.4 L/L
- Hematocrit (HCT) ([1]; Male NHP, 0.005 mg/kg, 7 days): 0.39 L/L
- Hematocrit (HCT) ([1]; Male NHP, 0.005 mg/kg, Pre-dose): 0.42 L/L
- Hematocrit (HCT) ([1]; Male NHP, 0.05 mg/kg, 14/18 days): 0.44 L/L
- Hematocrit (HCT) ([1]; Male NHP, 0.05 mg/kg, 24 hours): 0.39 L/L
- Hematocrit (HCT) ([1]; Male NHP, 0.05 mg/kg, 3 days): 0.41 L/L
- Hematocrit (HCT) ([1]; Male NHP, 0.05 mg/kg, 7 days): 0.42 L/L
- Hematocrit (HCT) ([1]; Male NHP, 0.05 mg/kg, Pre-dose): 0.44 L/L
- Hematocrit (HCT) ([1]; Male NHP, 0.5 mg/kg, 14/18 days): 0.34 L/L
- Hematocrit (HCT) ([1]; Male NHP, 0.5 mg/kg, 24 hours): 0.37 L/L
- Hematocrit (HCT) ([1]; Male NHP, 0.5 mg/kg, 3 days): 0.39 L/L
- Red Blood Cells (RBC) ([1]; Male NHP, 0.5 mg/kg, 3 days): 1.91 10^12/L
- Hematocrit (HCT) ([1]; Male NHP, 0.5 mg/kg, 7 days): 0.39 L/L
- Hematocrit (HCT) ([1]; Male NHP, 0.5 mg/kg, Pre-dose): 0.46 L/L
- neutrophils relative to pre-dose levels ([1]; NHP IV LNP, all G-CSF groups): increase in neutrophils
- Female NHP Neutrophils ([1]; 0.005 mg/kg IV LNP, 14/18 days): 0.057 10^12/L
- Female NHP Neutrophils ([1]; 0.005 mg/kg IV LNP, 24 hours): 0.07 10^12/L
- Female NHP Neutrophils ([1]; 0.005 mg/kg IV LNP, 3 days): 0 .054 10^12/L
- Female NHP Neutrophils ([1]; 0.005 mg/kg IV LNP, 7 days): 0.066 10^12/L
- Female NHP Neutrophils ([1]; 0.005 mg/kg IV LNP, Pre-dose): 0.06 10^12/L
- Female NHP Neutrophils ([1]; 0.05 mg/kg IV LNP, 14/18 days): 0.06 10^12/L
- Female NHP Neutrophils ([1]; 0.05 mg/kg IV LNP, 24 hours): 0.046 10^12/L
- Female NHP Neutrophils ([1]; 0.05 mg/kg IV LNP, 3 days): 0.061 10^12/L
- Female NHP Neutrophils ([1]; 0.05 mg/kg IV LNP, 7 days): 0.094 10^12/L
- Female NHP Neutrophils ([1]; 0.05 mg/kg IV LNP, Pre-dose): 0.049 10^12/L
- Female NHP Neutrophils ([1]; 0.5 mg/kg IV LNP, 14/18 days): 0.071 10^12/L
- Female NHP Neutrophils ([1]; 0.5 mg/kg IV LNP, 24 hours): 0.046 10^12/L
- Female NHP Neutrophils ([1]; 0.5 mg/kg IV LNP, 3 days): 0.017 10^12/L
- Female NHP Neutrophils ([1]; 0.5 mg/kg IV LNP, 7 days): 0.021 10^12/L
- Female NHP Neutrophils ([1]; 0.5 mg/kg IV LNP, Pre-dose): 0.055 10^12/L
- Human G-CSF in Serum ([2]; 100 μg (Luc-unsp 150 μg), I. V.): 31.0 pg/mL
- Human G-CSF in Serum ([2]; 100 μg, S. C.): 3.9 pg/mL
- innate immune recognition, cytokines (IFN-alpha) (IFN-alpha): induced IFN-alpha, TNF-alpha and IP10
- Serum Concentration 8-12 hours after administration ([3]; IM, 100 ug, saline): ~20 to 80 pg/mL
- Serum Concentration 8-12 hours after administration ([3]; IV (LNP), 1 ug): ~20,000 pg/ml
- Serum Concentration 8-12 hours after administration ([3]; IV (LNP), 10 ug): ~1,000,000 pg/ml
- Serum Concentration 8-12 hours after administration ([3]; IV (LNP), 100 ug): ~5,000,000 pg/ml
- Serum Concentration 8-12 hours after administration ([3]; IV (Lipoplex), 100 ug): ~30 pg/mL
- Serum Concentration 8-12 hours after administration ([3]; SC, 100 ug, saline): ~10 to 40 pg/mL
- G-CSF Protein Expression, Conc ([3]; LNP NPA-030-1, 10 ug): ~1200 ng/mL
- G-CSF Protein Expression, Conc ([3]; LNP NPA-030-1, 100 ug): ~4700 ng/mL
- half-life of mRNA (HEK293 cells): 8 to 10 h
